Results published in patent US20250250318A1 (US Dept. of Health and Human Services, published 2025).

Columns and labels:
Test in all cases: cell-based or functional assay
[1] = molecular target: WT KRAS peptide (SEQ ID NO: 55) pulsed on autologous APCs/DCs of the patient of Example 1 (Patient 4148) (human, UniProt P01903 26-254)
[2] = molecular target: WT KRAS peptide (SEQ ID NO: 55) pulsed on APCs from a donor with a DRB1 07:01 haplotype (human, UniProt P01903 26-254)
[3] = molecular target: WT KRAS peptide (SEQ ID NO: 55) pulsed on APCs from the HLA-DRB1 mismatch donor (human)
[4] = molecular target: KRAS^G12V peptide (SEQ ID NO: 53) pulsed on APCs from the HLA-DRB1 mismatch donor (human)
[5] = molecular target: WT KRAS peptide (SEQ ID NO: 55) pulsed on APCs from a donor with a DRB1 01:01 haplotype (human, UniProt P01903 26-254)
Sequence of WT KRAS peptide (SEQ ID NO: 55) pulsed on APCs from a donor with a DRB1 01:01 haplotype (peptide, as listed by the source, chain 1 of 3, other chains not shown): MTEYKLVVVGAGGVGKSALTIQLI

Sequence of WT KRAS peptide (SEQ ID NO: 55) pulsed on autologous APCs/DCs of the patient of Example 1 (Patient 4148) (P01903 26-254, chain 2 of 2): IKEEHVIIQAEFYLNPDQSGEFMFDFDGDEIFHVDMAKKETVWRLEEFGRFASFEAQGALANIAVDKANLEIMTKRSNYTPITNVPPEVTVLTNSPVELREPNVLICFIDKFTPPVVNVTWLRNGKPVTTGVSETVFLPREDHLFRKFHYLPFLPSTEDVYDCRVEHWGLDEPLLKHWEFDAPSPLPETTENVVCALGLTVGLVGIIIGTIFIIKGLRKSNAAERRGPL
Sequence of KRAS^G12V peptide (SEQ ID NO: 53) pulsed on APCs from the HLA-DRB1 mismatch donor (human) (Q05147 1-24, stated change not applied): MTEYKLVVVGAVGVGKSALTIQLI

IFN-γ secretion measured by ELISPOT [1]: ~354 ELISPOT count
IFN-γ secretion measured by ELISPOT [2]: ~291 ELISPOT count
IFN-γ secretion measured by ELISPOT [3]: 58 ELISPOT count
IFN-γ secretion measured by ELISPOT [4]: 41 ELISPOT count
IFN-γ secretion measured by ELISPOT [5]: 2 ELISPOT count
B1: KRAS^G12V-HLA-DRB1*07:01 TCR of Example 2 (cysteine substituted, LVL-modified murine constant region) (TCR, V domains shown)
V domain 1: GENVEQHPSTLSVQEGDSAVIKCTYSDSASNYFPWYKQELGKGPQLIIDIRSNVGEKKDQRIAVTLNKTAKHFSLHITETQPEDSAVYFCAASTGGGNKLTFGTGTQLKVEL
V domain 2: LLLGPAGSGLGAVVSQHPSRVICKSGTSVKIECRSLDFQATTMFWYRQFPKQSLMLMATSNEGSKATYEQGVEKDKFLINHASLTLSTLTVTSAHPEDSSFYICSAREGAGGMGTQYFGPGTRLLVLE
